Patent US12545899B2, “Luciferase enzymes for use with thermostable luciferins in bioluminescent assays” (Promega Corporation, priority 2018, dated 2026)
Positions count from the first letter of the chain named. Numbers in names are those of the source.

B1: MK0123: SEQ ID NO: 90; H244W+T344A+S193A+N228D+L305F+S306P+I109V (protein)
chain: MADKNILYGPEPFYPLEDGTAGEQMFDALSRYAAIPGCIALTNAHTKENVLYEEFLKLSCRLAESFKKYGLKQNDTIAVCSENSLQFFLPVIASLYLGIIVAPVNDKYVERELIHSLGIVKPRIVFCSKNTFQKVLNVKSKLKSIETIIILDLNEDLGGYQCLNNFISQNSDSNLDVKKFKPYSFNRDDQVAAIMFSSGTTGLPKGVMLTHKNIVARFSIAKDPTFGDAINPTSAILTVIPFHWGFGMMTTLGYFTCGFRVVLMHTFEEKLFLQSLQDYKVESTLLVPTLMAFLAKSALVEKYDFPHLKEIASGGAPLSKEIGEMVKKRFKLNFVRQGYGLSEATSAVLITPKGDAKPGSTGKIVPLHAVKVVDPTTGKILGPNEPGELYFKGPMKMKGYYNNEEATKAIIDNDGWLRSGDIAYYDNDGHFYIVDRLKSLIKYKGYQVAPAEIEGILLQHPYIVDAGVTGIPDEAAGELPAAGVVVQTGKYLNEQIVQDYVASQVSTAKWLRGGVKFLDEIPKGSTGKIDRKVLRQMLEKHTNGHHHHHHHH
B2: MK0121: SEQ ID NO: 88; H244W+T344A+I396K+S193A+N228D+L305F+I109V (protein)
chain: B1 chain with A316W, S342T
B3: MK0109: SEQ ID NO: 76; S193A (protein)
chain: B1 chain with V109I, S342T
B4: MK0119: SEQ ID NO: 86; T344A+I396K+S193A+N228D+L305F+S306P+I109V (protein)
chain: B1 chain with S342T, V348I
B5: MK0124: SEQ ID NO: 91; H244W+T344M+I396K+S193A+N228D+L305F+S306P+I109V (protein)
chain: B1 chain with S342T, A344I
B6: MK0125: SEQ ID NO: 92; H244W+T344A+I396L+S193A+N228D+L305F+S306P+I109V (protein)
chain: B1 chain with A316W, S342T, A344I
B7: MK0120: SEQ ID NO: 87; H244W+T344A+I396K+S193A+N228D+S306P+I109V (protein)
chain: B1 chain with A316M, S342T
B8: MK0108: SEQ ID NO: 75; I109V (protein)
chain: B1 chain with V109I, A193S, D228N, W244H, F305L, P306S, S342T, A344T, K396L

Columns and labels:
[1] = Differential scanning fluorimetry (DSF) analysis; type: physicochemical; conditions: Table 9A
Procedure, shortened: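 Thermal melt with 5× final Sypro Orange: ramp 1° C/min from 30 to 95° C, reading each 60 s, derivative of fluorescence plotted by temperature. Luciferase variants were in 20 mM HEPES pH 7.5, 200 mM NaCl, 1 mM EDTA; other enzymes in 50 mM HEPES pH 7.5, 100 mM NaCl, 2 mM EDTA.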

[2] = Effect of individual mutations: maximum luminescence with CS0333; type: biochemical; conditions: 10 fM to 1 mM CS0333; Detection Reagent (DR) buffer
Method: Experiments were also conducted to evaluate and compare the activities of the various luciferase enzyme variants, including the effects of individual amino acid mutations. To evaluate the effect of individual mutations on luciferase enzyme variants, 0.005 mg/ml luciferase enzyme variant was mixed with 1 mM ATP+10 fM to 1 mM CS0333 in Detection Reagent (DR) buffer.

| Molecule | DSF Tm (° C.) [1] | Vmax (RLU) with CS0333 [2] |
| --- | --- | --- |
| B1 | 72 °C | 2,841,640 RLU |
| B2 | 62 °C | 2,643,970 RLU |
| B3 | 77 °C | 1,114 RLU |
| B4 | 64 °C | 62,167 RLU |
| B5 | 70 °C | 4,270,690 RLU |
| B6 | 69 °C | 2,625,480 RLU |
| B7 | 62 °C | 3,192,740 RLU |
| B8 | 78 °C | 1,300 RLU |
